Experimental data reported in paper doi:10.1101/529222 (bioRxiv, 2019).

Target: GST-EVH1 domain of VASP (UniProt P70460 1-113)
Experiment: pull-down

GST-EVH1 domain of VASP, sequence (P70460 1-113): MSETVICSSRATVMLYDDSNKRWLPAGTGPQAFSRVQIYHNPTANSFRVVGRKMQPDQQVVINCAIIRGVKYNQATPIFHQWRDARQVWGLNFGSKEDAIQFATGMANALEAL

- fold change of TRIM9 precipitated, Trim67-/- lysate against wild-type lysate: ~2 fold
B1: endogenous TRIM9 (natural protein, mouse (endogenous in E15.5 cortex), UniProt Q8C7M3 1-817, looked up)
chain: MEEMEEELKCPVCGSFYREPIILPCSHNLCQACARNILVQTPESESPQSRRASGSGVSDYDYLDLDKMSLYSEADSGYGSYGGFASAPTTPCQKSPNGVRVFPPAMPPPPTHLSPALAPVPRNSCITCPQCHRSLILDDRGLRGFPKNRVLEGVIDRYQQSKAAALKCQLCEKAPKEATVMCEQCDVFYCDPCRLRCHPPRGPLAKHRLVPPAQGRVSRRLSPRKVSTCTDHELENHSMYCVQCKMPVCYQCLEEGKHSSHEVKALGAMWKLHKSQLSQALNGLSDRAKEAKEFLVQLRTMVQQIQENSVEFEACLVAQCDALIDALNRRKAQLLARVNKEHEHKLKVVRDQISHCTVKLRQTTGLMEYCLEVIKENDPSGFLQISDALIRRVHLTEDQWGKGTLTPRMTTDFDLSLDNSPLLQSIHQLDFVQVKASSPVPATPILQLEECCTHNNSATLSWKQPPLSTVAADGYILELDDGSGGQFREVYVGKETMCTVDGLHFNSTYNARVKAFNKTGVSPYSKTLVLQTSEAAGAHETKPMKDTDSEEQTLPFPVPSERLPLRRMSPFSSTLNLQPSFPGRSYFDFRSSPHQLSLHSSLQSLNAPGCNFETQSASYSQLVDIKKLLAVAWFAFDPGSAHSDIIFSNDNLTVTCSSYDDRVVLGKTGFSKGVHYWELTIDRYDNHPDPAFGVARIDVMKDMMLGKDDKAWAMYVDNNRSWFMHNNSHTNRTEGGITKGATIGVLLDLNRKTLTFFVNNEQQGPIAFENVEGLFFPAVSLNRNVQVSLWAPGLRACSGCYFKVCPGAVKSPQAPAP
